Here are results for two molecules from paper PMC5663709 (Scientific Reports, 2017).

The target of test [1] is recombinant hemagglutinin (HA) trimer of H1N1 A/California/07/2009, ectodomain (Influenza A virus A/California/07/2009 …, UniProt C3W5X2). In words: ELISA. The settings on record: both partners purified. (In general: ELISA stands for enzyme-linked immunosorbent assay.)
The target of test [2] is purified monomeric HA of H1N1 CA/09 (thrombin-digested ectodomain) (Influenza A virus A/California/07/2009 …, UniProt C3W5X2). Nature of the test: crystal structure. The settings on record: both partners purified.

B1: S40 IgG (antibody, V domains shown)
VH: EVQLVESGGGLVQPGGSLRLSCAASGFTIGDFGIHWVRQAPGKGLEWVAGIWPFGGYTYYADSVKGRFTISADTSKNTAYLQMNSLRAEDTAVYYCARFVNWDGDYMDYWGQGTLVTVSS
VL: DIQMTQSPSSLSASVGDRVTITCRASQDVGFYVAWYQQKPGKAPKLLISWSSYLYSGVPSRFSGSGSGTDFTLTISSLQPEDFATYYCQQYYNYPLTFGQGTKVEIK
notes: copies: 2 + 2
As for B1, the binding result in test [1] is given as “binds”.

B2: S40 Fab (Fab, V domains shown)
VH: EVQLVESGGGLVQPGGSLRLSCAASGFTIGDFGIHWVRQAPGKGLEWVAGIWPFGGYTYYADSVKGRFTISADTSKNTAYLQMNSLRAEDTAVYYCARFVNWDGDYMDYWGQGTLVTVSS
VL: DIQMTQSPSSLSASVGDRVTITCRASQDVGFYVAWYQQKPGKAPKLLISWSSYLYSGVPSRFSGSGSGTDFTLTISSLQPEDFATYYCQQYYNYPLTFGQGTKVEIK
Take B2: the binding result in test [2] is reported as “binds”.
